Experimental data reported in the supplement of paper PMC6379048.

How the values were obtained:
Test in all cases: Kd (EC50 corrected by depletion factor)
RPS16 = RPS16 (UniProt P62249)
How it was run: (§1)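 HEK293-FT lysate (2.5 mg protein/well) was treated with free RNA oligos (0 nM to 30 μM) for 1 h at 4°C, then with the same oligos on NHS-Sepharose beads for 30 min at 4°C. Bound proteins were quantified by label-free LC-MS/MS relative to the control. EC50 came from a four-parameter log-logistic fit, and Kd is EC50 times a protein-dependent depletion factor.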

SLIRP = SLIRP (UniProt Q9GZT3)
How it was run: as §1

NCL = NCL (UniProt P19338)
How it was run: as §1

PABPC4 = PABPC4 (UniProt Q13310)
How it was run: as §1

LSM2 = target: T1, LSM2 (UniProt Q9Y333)
T1 sequence: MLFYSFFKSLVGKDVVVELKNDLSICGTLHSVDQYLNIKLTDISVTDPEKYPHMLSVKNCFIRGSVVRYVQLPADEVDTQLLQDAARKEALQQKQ
How it was run: as §1

LSM1 = target: T2, LSM1 (UniProt O15116)
T2 sequence: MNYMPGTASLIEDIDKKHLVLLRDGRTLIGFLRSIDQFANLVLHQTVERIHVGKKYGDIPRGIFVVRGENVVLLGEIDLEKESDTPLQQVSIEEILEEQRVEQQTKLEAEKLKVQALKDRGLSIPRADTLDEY
How it was run: as §1

RBM17 = target: T3, RBM17 (UniProt Q96I25)
T3 sequence: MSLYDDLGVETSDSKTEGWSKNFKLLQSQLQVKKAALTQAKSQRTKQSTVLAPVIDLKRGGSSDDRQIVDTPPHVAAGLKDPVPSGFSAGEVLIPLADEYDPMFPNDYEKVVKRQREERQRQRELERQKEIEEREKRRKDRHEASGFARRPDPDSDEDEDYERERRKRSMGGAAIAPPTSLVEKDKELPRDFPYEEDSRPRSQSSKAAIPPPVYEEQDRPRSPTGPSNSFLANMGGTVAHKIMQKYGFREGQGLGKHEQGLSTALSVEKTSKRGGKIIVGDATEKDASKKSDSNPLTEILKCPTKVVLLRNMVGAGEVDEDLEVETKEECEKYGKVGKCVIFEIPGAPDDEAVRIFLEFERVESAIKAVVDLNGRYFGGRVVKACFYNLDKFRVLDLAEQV
How it was run: as §1

MSI2 = MSI2 (UniProt Q96DH6)
How it was run: as §1

XRN1 = XRN1 (UniProt Q8IZH2)
How it was run: as §1

MEX3A = target: T4, MEX3A (UniProt A1L020)
T4 sequence: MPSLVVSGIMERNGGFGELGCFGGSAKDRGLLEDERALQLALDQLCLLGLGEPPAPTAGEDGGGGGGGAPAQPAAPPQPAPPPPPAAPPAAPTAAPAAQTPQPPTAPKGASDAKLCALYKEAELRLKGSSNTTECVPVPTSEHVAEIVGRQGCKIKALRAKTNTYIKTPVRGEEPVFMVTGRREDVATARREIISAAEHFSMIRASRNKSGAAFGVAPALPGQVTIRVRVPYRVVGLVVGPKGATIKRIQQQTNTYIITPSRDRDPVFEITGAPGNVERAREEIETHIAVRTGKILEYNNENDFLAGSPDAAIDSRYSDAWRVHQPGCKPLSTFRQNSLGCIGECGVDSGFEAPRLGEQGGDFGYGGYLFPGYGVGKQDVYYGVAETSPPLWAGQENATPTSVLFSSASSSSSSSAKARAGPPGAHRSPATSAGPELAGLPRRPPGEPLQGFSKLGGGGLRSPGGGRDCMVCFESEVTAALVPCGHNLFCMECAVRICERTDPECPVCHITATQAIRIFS
How it was run: as §1

TFIP11 = target: T5, TFIP11 (UniProt Q9UBB9)
T5 sequence: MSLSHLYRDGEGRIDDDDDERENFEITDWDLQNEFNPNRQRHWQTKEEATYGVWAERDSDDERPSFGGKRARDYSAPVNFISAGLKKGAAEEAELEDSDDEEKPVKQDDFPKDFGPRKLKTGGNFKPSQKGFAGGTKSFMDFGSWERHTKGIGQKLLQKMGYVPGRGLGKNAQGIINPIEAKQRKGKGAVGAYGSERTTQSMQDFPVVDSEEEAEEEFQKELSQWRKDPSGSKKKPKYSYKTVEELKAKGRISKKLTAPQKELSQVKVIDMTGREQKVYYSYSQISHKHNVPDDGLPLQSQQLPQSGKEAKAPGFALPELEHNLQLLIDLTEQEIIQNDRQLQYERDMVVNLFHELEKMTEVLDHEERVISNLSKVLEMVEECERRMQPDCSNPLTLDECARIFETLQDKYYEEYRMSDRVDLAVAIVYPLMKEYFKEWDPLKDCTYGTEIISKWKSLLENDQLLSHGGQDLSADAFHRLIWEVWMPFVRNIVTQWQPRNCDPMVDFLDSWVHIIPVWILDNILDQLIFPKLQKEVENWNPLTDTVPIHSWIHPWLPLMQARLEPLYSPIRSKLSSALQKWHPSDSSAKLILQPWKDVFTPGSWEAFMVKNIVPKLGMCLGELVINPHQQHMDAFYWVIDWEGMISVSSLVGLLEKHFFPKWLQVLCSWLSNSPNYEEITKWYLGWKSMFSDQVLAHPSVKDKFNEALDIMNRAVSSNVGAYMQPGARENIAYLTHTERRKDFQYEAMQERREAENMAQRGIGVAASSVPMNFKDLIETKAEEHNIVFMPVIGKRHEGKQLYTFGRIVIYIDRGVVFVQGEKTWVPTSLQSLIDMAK
How it was run: as §1

Chain of XRN1 (Q8IZH2 whole entry): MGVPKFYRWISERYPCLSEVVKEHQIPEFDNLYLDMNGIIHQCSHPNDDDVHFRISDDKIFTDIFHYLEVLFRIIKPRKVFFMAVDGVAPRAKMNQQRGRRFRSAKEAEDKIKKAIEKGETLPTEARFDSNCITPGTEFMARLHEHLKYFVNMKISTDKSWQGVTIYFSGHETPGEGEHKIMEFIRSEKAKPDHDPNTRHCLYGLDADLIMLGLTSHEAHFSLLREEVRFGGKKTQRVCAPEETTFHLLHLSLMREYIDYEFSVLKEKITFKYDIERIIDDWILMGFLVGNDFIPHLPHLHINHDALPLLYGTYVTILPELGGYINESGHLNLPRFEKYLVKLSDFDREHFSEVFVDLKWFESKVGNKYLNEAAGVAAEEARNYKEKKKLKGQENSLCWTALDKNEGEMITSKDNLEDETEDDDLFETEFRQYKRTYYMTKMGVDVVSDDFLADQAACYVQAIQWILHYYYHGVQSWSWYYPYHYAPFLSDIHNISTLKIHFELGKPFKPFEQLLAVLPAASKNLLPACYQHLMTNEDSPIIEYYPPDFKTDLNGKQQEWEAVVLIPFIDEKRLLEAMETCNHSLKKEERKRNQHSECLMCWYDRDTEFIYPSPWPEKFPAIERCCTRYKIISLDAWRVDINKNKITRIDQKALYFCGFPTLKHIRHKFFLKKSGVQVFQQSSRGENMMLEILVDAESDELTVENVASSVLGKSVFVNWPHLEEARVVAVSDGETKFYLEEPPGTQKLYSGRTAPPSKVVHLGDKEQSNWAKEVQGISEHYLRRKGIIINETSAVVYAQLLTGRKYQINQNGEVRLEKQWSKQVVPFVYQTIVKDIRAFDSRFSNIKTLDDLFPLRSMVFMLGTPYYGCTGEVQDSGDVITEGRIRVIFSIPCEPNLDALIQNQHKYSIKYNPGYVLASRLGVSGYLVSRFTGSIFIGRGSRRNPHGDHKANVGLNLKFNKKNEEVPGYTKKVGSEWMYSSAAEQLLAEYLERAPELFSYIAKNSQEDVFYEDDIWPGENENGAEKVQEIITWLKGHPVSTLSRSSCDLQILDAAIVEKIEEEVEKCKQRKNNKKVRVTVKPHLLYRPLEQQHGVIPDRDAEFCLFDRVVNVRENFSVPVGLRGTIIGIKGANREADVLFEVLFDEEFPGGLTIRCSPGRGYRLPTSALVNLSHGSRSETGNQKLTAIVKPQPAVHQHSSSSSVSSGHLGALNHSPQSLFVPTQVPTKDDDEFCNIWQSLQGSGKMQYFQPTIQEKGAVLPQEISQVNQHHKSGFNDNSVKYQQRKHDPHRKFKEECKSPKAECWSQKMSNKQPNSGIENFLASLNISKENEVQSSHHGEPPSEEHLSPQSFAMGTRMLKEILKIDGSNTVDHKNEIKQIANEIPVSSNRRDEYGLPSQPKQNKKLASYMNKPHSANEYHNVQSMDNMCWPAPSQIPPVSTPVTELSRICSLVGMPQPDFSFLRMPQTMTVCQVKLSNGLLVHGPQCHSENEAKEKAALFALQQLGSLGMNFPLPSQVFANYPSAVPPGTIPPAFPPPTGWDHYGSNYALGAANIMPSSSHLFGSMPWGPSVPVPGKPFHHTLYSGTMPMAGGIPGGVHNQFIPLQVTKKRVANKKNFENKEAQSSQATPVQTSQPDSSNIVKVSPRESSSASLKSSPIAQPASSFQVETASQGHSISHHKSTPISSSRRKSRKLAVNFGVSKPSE
Chain of MSI2 (Q96DH6 whole entry): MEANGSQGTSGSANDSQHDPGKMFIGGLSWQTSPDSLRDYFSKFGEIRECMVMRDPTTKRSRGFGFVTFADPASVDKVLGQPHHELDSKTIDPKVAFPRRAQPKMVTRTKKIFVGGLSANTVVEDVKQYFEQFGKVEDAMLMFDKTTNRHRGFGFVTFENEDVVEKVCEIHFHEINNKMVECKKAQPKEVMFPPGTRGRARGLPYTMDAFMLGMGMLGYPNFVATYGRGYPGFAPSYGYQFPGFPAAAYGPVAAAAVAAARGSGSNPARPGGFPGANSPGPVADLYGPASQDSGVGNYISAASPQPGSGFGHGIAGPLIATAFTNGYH
Chain of PABPC4 (Q13310 whole entry): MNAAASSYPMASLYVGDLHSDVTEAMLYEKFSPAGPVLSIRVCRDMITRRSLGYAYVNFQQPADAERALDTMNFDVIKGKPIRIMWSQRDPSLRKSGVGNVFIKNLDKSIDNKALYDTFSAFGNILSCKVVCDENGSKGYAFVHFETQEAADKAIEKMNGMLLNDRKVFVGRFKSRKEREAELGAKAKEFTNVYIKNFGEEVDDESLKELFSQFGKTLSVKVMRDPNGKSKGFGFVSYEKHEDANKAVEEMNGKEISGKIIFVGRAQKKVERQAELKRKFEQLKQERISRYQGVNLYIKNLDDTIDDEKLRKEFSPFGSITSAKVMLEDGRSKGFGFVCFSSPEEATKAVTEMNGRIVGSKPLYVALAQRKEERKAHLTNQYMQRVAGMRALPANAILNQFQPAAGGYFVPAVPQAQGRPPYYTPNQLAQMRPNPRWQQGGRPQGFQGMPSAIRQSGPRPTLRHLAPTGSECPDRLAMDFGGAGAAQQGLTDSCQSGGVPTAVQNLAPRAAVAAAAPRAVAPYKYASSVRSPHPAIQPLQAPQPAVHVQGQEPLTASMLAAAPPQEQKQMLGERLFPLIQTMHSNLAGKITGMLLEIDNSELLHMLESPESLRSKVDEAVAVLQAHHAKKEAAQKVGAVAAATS
Chain of NCL (P19338 whole entry): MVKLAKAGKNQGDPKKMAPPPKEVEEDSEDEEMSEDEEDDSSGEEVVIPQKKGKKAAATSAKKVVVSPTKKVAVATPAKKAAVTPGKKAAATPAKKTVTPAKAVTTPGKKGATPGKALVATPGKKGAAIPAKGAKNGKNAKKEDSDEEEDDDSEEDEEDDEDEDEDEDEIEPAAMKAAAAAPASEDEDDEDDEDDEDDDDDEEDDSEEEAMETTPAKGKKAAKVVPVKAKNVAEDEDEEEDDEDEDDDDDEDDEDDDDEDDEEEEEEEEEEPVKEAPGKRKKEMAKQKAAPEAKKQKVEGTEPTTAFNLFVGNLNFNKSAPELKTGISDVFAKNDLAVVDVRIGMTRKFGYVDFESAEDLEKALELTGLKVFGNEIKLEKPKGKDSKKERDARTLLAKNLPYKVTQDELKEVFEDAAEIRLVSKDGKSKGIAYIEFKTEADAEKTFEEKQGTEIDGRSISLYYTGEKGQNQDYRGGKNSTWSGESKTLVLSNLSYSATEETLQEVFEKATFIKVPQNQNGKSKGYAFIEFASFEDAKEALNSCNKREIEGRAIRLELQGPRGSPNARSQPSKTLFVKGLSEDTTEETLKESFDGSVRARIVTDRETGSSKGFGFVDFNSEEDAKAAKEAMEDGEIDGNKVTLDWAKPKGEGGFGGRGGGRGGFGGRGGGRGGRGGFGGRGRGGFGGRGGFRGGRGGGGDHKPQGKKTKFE

| Sequence | Kd (RPS16) [µM] | Kd (SLIRP) [µM] | Kd (NCL) [µM] | Kd (PABPC4) [µM] | Kd (LSM2) [µM] | Kd (LSM1) [µM] | Kd (RBM17) [µM] | Kd (MSI2) [µM] | Kd (XRN1) [µM] | Kd (MEX3A) [µM] | Kd (TFIP11) [µM] |
| --- | --- | --- | --- | --- | --- | --- | --- | --- | --- | --- | --- |
| CUGUCCU | 0.077 | 0.904 | 0.0868 | – | – | – | – | – | – | – | – |
| AAUAAA | 0.349 | 0.393 | – | 1.53 | 0.0527 | 0.0232 | 0.94 | 0.104 | 0.197 | 0.536 | 0.569 |
| UAUUUAU | – | – | 1.77 | 7.84 | 0.309 | 0.167 | 0.0599 | 0.475 | 0.106 | 0.277 | 1.23 |
